According to patent US20250043022A1 (JIANGSU HENGRUI PHARMACEUTICALS, published 2025):

Molecular target: T1, human PSMA on cells (Cho-hPSMA, CHO-K1 cells overexpressing full-length human PSMA) (human, UniProt Q04609 1-750)
T1 construct: whole, on cells; also called cell surface PSMA; PSMA-expressing Lncap cells
Experiment: cell ELISA (OD450), Cho-hPSMA cells
Description: Experiment 2: Cells were cultured and inoculated onto a cell plate using the same method as in Experiment 1. The antibodies were serially diluted, and the antibody solutions were added to the cell plate at 100 μL/well. The plate was incubated at 4° C. for 1 h and then washed. An HRP-Goat Anti-human IgG (H+L) secondary antibody dilution (1:8000) was added to the cell plate at 100 μL/well, and the plate was incubated at 4° C. for 1 h and then washed by centrifugation. After color development with TMB, the reaction was stopped with 0.1 M sulfuric acid, and OD450 values were measured.

T1 sequence (Q04609 whole entry): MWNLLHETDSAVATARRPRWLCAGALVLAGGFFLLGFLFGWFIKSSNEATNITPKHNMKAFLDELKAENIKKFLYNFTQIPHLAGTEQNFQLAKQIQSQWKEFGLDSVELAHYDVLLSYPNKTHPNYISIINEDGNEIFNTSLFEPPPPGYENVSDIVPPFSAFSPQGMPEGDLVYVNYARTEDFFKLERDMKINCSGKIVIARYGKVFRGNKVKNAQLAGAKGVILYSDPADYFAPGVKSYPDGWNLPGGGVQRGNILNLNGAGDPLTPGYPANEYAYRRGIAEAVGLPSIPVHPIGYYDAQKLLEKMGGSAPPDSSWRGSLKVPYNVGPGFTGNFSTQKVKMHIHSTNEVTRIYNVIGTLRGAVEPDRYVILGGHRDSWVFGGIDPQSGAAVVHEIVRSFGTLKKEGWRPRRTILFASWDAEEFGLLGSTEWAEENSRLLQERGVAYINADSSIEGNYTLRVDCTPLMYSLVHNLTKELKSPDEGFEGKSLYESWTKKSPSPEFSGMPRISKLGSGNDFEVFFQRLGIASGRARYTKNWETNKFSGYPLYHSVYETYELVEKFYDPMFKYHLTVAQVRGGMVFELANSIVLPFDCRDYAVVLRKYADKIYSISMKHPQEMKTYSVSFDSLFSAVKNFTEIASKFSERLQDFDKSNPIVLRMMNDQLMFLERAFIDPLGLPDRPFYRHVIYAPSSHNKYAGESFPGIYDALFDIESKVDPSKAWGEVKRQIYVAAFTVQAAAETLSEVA

| Binder | EC50 |
| --- | --- |
| hu15H3L1 (antibody, human IgG1, kappa, V domains shown) VH: EFQLVQSGAEVKKPGASVKVSCKASGYSFTDHNMNWVRQAPGQRLEWMGLINPNYGTADYNQKFKGRVTITVDQSASTAYMELSSLRSEDTAVYYCARGSSLFAYWGQGTLVTVSS VL: DIQMTQSPSSLSASVGDRVTITCKASQGVDTAVAWYQQKPGKVPKLLIYWASTRHTGVPSRFSGSGSGTDFTLTISSLQPEDVATYYCQQYSRYPLTFGQGTKLEIKR | 0.0731 µg/mL |
| hu15H5L2 (antibody, human IgG1, kappa, V domains shown) VH: EFQLVQSGAEVKKPGASVKVSCKASGYSFTDHNMNWVRQAPGQRLEWIGLINPNYGTADYNQKFKGRATLTVDQSATTAYMELSSLRSEDTAVYYCARGSSLFAYWGQGTLVTVSS VL: DIQMTQSPSSLSASVGDRVTITCKASQGVDTAVAWYQQKPGKSPKLLIYWASTRHTGVPDRFSGSGSGTDFTLTISSLQPEDVATYYCQQYSRYPLTFGQGTKLEIKR | 0.0818 µg/mL |
| hu15H3L2 (antibody, human IgG1, kappa, V domains shown) VH: EFQLVQSGAEVKKPGASVKVSCKASGYSFTDHNMNWVRQAPGQRLEWMGLINPNYGTADYNQKFKGRVTITVDQSASTAYMELSSLRSEDTAVYYCARGSSLFAYWGQGTLVTVSS VL: DIQMTQSPSSLSASVGDRVTITCKASQGVDTAVAWYQQKPGKSPKLLIYWASTRHTGVPDRFSGSGSGTDFTLTISSLQPEDVATYYCQQYSRYPLTFGQGTKLEIKR | 0.0821 µg/mL |
| hu15H2L1 (antibody, human IgG1, kappa, V domains shown) VH: EFQLVQSGAEVKKPGASVKVSCKASGYSFTDHNMNWVRQAPGQRLEWMGLINPNYGTADYNQKFKGRVTITRDTSASTAYMELSSLRSEDTAVYYCARGSSLFAYWGQGTLVTVSS VL: DIQMTQSPSSLSASVGDRVTITCKASQGVDTAVAWYQQKPGKVPKLLIYWASTRHTGVPSRFSGSGSGTDFTLTISSLQPEDVATYYCQQYSRYPLTFGQGTKLEIKR | 0.0871 µg/mL |
| hu15H5L1 (antibody, human IgG1, kappa, V domains shown) VH: EFQLVQSGAEVKKPGASVKVSCKASGYSFTDHNMNWVRQAPGQRLEWIGLINPNYGTADYNQKFKGRATLTVDQSATTAYMELSSLRSEDTAVYYCARGSSLFAYWGQGTLVTVSS VL: DIQMTQSPSSLSASVGDRVTITCKASQGVDTAVAWYQQKPGKVPKLLIYWASTRHTGVPSRFSGSGSGTDFTLTISSLQPEDVATYYCQQYSRYPLTFGQGTKLEIKR | 0.0847 µg/mL |
| hu15H1L1 (antibody, human IgG1, kappa, V domains shown) VH: EFQLVQSGAEVKKPGASVKVSCKASGYTFTDHNMNWVRQAPGQRLEWMGLINPNYGTADYNQKFKGRVTITRDTSASTAYMELSSLRSEDTAVYYCARGSSLFAYWGQGTLVTVSS VL: DIQMTQSPSSLSASVGDRVTITCKASQGVDTAVAWYQQKPGKVPKLLIYWASTRHTGVPSRFSGSGSGTDFTLTISSLQPEDVATYYCQQYSRYPLTFGQGTKLEIKR | 0.0683 µg/mL |
| hu15H4L1 (antibody, human IgG1, kappa, V domains shown) VH: EFQLVQSGAEVKKPGASVKVSCKASGYSFTDHNMNWVRQAPGQRLEWMGLINPNYGTADYNQKFKGRVTLTVDQSATTAYMELSSLRSEDTAVYYCARGSSLFAYWGQGTLVTVSS VL: DIQMTQSPSSLSASVGDRVTITCKASQGVDTAVAWYQQKPGKVPKLLIYWASTRHTGVPSRFSGSGSGTDFTLTISSLQPEDVATYYCQQYSRYPLTFGQGTKLEIKR | 0.069 µg/mL |
| hu15H2L2 (antibody, human IgG1, kappa, V domains shown) VH: EFQLVQSGAEVKKPGASVKVSCKASGYSFTDHNMNWVRQAPGQRLEWMGLINPNYGTADYNQKFKGRVTITRDTSASTAYMELSSLRSEDTAVYYCARGSSLFAYWGQGTLVTVSS VL: DIQMTQSPSSLSASVGDRVTITCKASQGVDTAVAWYQQKPGKSPKLLIYWASTRHTGVPDRFSGSGSGTDFTLTISSLQPEDVATYYCQQYSRYPLTFGQGTKLEIKR | 0.0874 µg/mL |
| hu15H1L2 (antibody, human IgG1, kappa, V domains shown) VH: EFQLVQSGAEVKKPGASVKVSCKASGYTFTDHNMNWVRQAPGQRLEWMGLINPNYGTADYNQKFKGRVTITRDTSASTAYMELSSLRSEDTAVYYCARGSSLFAYWGQGTLVTVSS VL: DIQMTQSPSSLSASVGDRVTITCKASQGVDTAVAWYQQKPGKSPKLLIYWASTRHTGVPDRFSGSGSGTDFTLTISSLQPEDVATYYCQQYSRYPLTFGQGTKLEIKR | 0.075 µg/mL |
| hu31H1L2 (antibody, human IgG1, kappa, V domains shown) VH: EVQLVESGGGLVQPGGSLRLSCAASGFTFSDYYMAWVRQAPGKGLEWVASINYDGSSTYYLDSLKSRFTISRDNAKNSLYLQMNSLRAEDTAVYYCAGSDGYWAWFAYWGQGTLVTVSS VL: DIQMTQSPSSLSASVGDRVTITCRASGNIHNYLAWYQQKPGKAPQLLVYNAETLADGVPSRFSGSGSGTDFTLTISSLQPEDFATYYCQHFWSTPPTFGGGTKVEIKR | 0.12 µg/mL |
| hu31H1L3 (antibody, human IgG1, kappa, V domains shown) VH: EVQLVESGGGLVQPGGSLRLSCAASGFTFSDYYMAWVRQAPGKGLEWVASINYDGSSTYYLDSLKSRFTISRDNAKNSLYLQMNSLRAEDTAVYYCAGSDGYWAWFAYWGQGTLVTVSS VL: DIQMTQSPSSLSASVGDRVTITCRASGNIHNYLAWYQQKPGKSPQLLVYNAETLADGVPSRFSGSGSGTQFTLTISSLQPEDFATYYCQHFWSTPPTFGGGTKVEIKR | 0.124 µg/mL |
| hu41H1L2 (antibody, human IgG1, kappa, V domains shown) VH: EVQLVQSGAEVKKPGASVKVSCKASGYTFTSYGISWVRQAPGQGLEWMGEIFPRRGNTYYNEKFRGRVTMTTDKSTSTAYMELRSLRSDDTAVYYCARVFDGYYNYAMDYWGQGTTVTVSS VL: DIQMTQSPSSLSASVGDRVTITCRASQDIGSSLNWLQQKPGKAIKRLIYATSSLDSGVPSRFSGSRSGTDYTLTISSLQPEDFATYYCLQYASSPYTFGGGTKVEIKR | 0.982 µg/mL |
| hu41H1L3 (antibody, human IgG1, kappa, V domains shown) VH: EVQLVQSGAEVKKPGASVKVSCKASGYTFTSYGISWVRQAPGQGLEWMGEIFPRRGNTYYNEKFRGRVTMTTDKSTSTAYMELRSLRSDDTAVYYCARVFDGYYNYAMDYWGQGTTVTVSS VL: DIQMTQSPSSLSASVGDRVTITCRASQDIGSSLNWLQQKPGGAIKRLIYATSSLDSGVPSRFSGSRSGSDYTLTISSLQPEDFATYYCLQYASSPYTFGGGTKVEIKR | 0.985 µg/mL |
| hu41H2L1 (antibody, human IgG1, kappa, V domains shown) VH: EVQLVQSGAEVKKPGASVKVSCKASGYTFTSYGISWVRQAPGQGLEWMGEIFPRRGNTYYNEKFRGRVTLTADKSTSTAYMELRSLRSDDTAVYYCARVFDGYYNYAMDYWGQGTTVTVSS VL: DIQMTQSPSSLSASVGDRVTITCRASQDIGSSLNWLQQKPGKAPKRLIYATSSLDSGVPSRFSGSRSGTDFTLTISSLQPEDFATYYCLQYASSPYTFGGGTKVEIKR | 1.22 µg/mL |
| hu41H1L1 (antibody, human IgG1, kappa, V domains shown) VH: EVQLVQSGAEVKKPGASVKVSCKASGYTFTSYGISWVRQAPGQGLEWMGEIFPRRGNTYYNEKFRGRVTMTTDKSTSTAYMELRSLRSDDTAVYYCARVFDGYYNYAMDYWGQGTTVTVSS VL: DIQMTQSPSSLSASVGDRVTITCRASQDIGSSLNWLQQKPGKAPKRLIYATSSLDSGVPSRFSGSRSGTDFTLTISSLQPEDFATYYCLQYASSPYTFGGGTKVEIKR | 1.08 µg/mL |
| hu41H2L3 (antibody, human IgG1, kappa, V domains shown) VH: EVQLVQSGAEVKKPGASVKVSCKASGYTFTSYGISWVRQAPGQGLEWMGEIFPRRGNTYYNEKFRGRVTLTADKSTSTAYMELRSLRSDDTAVYYCARVFDGYYNYAMDYWGQGTTVTVSS VL: DIQMTQSPSSLSASVGDRVTITCRASQDIGSSLNWLQQKPGGAIKRLIYATSSLDSGVPSRFSGSRSGSDYTLTISSLQPEDFATYYCLQYASSPYTFGGGTKVEIKR | 1.21 µg/mL |
